This is an account of results in patent publication US20040096898A1 (MCMASTER UNIVERSITY, published 2004).

This test addresses T1, PMCA398 (WVQKRPWLAESTPIYIQYFVKC) (conjugated through the terminus cysteine to keyhole limpet hemocyanin or ovalbumin).
T1 construct: Used as the KHLH conjugate (coated), as the free peptide (coated) and as the ovalbumin conjugate (eluting)
T1 peptide: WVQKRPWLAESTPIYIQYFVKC
Nature of the test: phage display panning on coated peptide conjugate. The text has this: The peptide fragment from the PMCA protein is preferably from an extracellular domain of the PMCA protein. […] The inventors screened an MEK13 random peptide phage display library (New England Biolabs, USA) and identified a phage that bound to the PMCA398-keyhole limpet hemocyanin conjugate and eluted with the PMCA398-ovalbumin. Specific details on the screening assay are provided in Example 1. A peptide containing the 12 amino add recognition sequence and a spacer ([…]-amide, SEQ.ID.NO.1) was synthesized and subsequently termed caloxin 2A1.
1.4.4. Screening Procedure for PMCA398: The peptide PMCA398 is extremely hydrophobic. Therefore, it was conjugated at a lower (5:1 molar) ratio to KHLH and ovalbumin. The peptide and its conjugates could be used only at low concentrations as very fine suspensions. […] Therefore, a strategy of sequentially increasing selectivity was used. First three rounds of panning were conducted at low stringency. […] The selected phage were pooled. […] After three high stringency washes, a differential time elution was performed—at each time point replacing the elutant with new PBS. The idea was that the most tightly bound phage would elute last. The elution was at room temperature for 1, 2, 4, 8, 16 and then 120 min. The phage from 16 and 120 min elutants gave excellent results in selectivity assays. […]

Ends that are not written are not given here.

B1: phage displaying the 12 amino acid peptide VSNSNWPSFPSS (peptide)
peptide: VSNSNWPSFPSS
modifications: also: displayed as a fusion on M13KE phage
notes: also called phage from 16 and 120 min elutants; consensus clone of the PMCA398 screen; not shown: rest of the M13KE phage display fusion (PhD12 library); not described
For B1, the binding result is recorded as “binds”.
